Values quoted from earlier work, collected in article PMC8355678.

How the values were obtained:
[1] = target: CCL2 receptor on monocytes (Homo sapiens) (UniProt P41597)
[2] = target: CXCR3 (Homo sapiens) (UniProt P49682)
Chain of UniProt P49682 (P49682 whole entry): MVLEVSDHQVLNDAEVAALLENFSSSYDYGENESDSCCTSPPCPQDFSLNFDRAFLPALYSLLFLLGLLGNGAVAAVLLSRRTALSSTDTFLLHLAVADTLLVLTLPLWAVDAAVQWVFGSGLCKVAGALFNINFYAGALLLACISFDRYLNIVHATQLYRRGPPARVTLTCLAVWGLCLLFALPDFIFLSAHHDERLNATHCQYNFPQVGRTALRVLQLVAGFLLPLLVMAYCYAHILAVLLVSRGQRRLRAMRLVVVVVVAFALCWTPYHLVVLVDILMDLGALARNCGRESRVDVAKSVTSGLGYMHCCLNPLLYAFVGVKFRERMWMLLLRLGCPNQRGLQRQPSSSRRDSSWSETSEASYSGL

Chain of CCL2 (P13500 24-99): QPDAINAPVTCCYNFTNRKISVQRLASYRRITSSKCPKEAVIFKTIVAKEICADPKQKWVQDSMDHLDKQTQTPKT
Chain of UniProt P41597 (P41597 whole entry): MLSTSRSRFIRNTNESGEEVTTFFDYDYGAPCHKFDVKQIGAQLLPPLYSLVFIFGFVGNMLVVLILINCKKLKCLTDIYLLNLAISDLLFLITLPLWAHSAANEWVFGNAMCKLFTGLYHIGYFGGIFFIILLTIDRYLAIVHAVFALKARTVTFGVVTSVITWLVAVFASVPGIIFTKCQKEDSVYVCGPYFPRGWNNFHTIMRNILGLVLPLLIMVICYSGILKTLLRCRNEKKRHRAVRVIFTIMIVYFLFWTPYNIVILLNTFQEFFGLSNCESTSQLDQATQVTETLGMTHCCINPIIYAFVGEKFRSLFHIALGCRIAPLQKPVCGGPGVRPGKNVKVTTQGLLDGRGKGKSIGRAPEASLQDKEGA

Substance	Kd [1]	Kd [2]
CCL2 (from UniProt P13500)	0.77 nM	
CXCL10 (from UniProt P02778)		0.25 nM
